Experimental data as given in the supplement of paper PMC10065799, “High-throughput profiling of sequence recognition by tyrosine kinases and SH2 domains using bacterial peptide display” (eLife, 2023).

target: FGFR3 (UniProt P22607); test: phosphorylation enrichment, bacterial display (enrichment ratio); higher = better substrate or ligand; peptides without Tyr show the background
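Note: 11-residue human phosphosite peptides and single-mutation variants displayed on the E. coli surface, counted by deep sequencing, each peptide's frequency after selection divided by its frequency in the unselected input library; frequency after pTyr selection over input frequency; kinase dosed for 20-30% of maximal phosphorylation in three min.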

Sequence of FGFR3 (P22607 whole entry, looked up): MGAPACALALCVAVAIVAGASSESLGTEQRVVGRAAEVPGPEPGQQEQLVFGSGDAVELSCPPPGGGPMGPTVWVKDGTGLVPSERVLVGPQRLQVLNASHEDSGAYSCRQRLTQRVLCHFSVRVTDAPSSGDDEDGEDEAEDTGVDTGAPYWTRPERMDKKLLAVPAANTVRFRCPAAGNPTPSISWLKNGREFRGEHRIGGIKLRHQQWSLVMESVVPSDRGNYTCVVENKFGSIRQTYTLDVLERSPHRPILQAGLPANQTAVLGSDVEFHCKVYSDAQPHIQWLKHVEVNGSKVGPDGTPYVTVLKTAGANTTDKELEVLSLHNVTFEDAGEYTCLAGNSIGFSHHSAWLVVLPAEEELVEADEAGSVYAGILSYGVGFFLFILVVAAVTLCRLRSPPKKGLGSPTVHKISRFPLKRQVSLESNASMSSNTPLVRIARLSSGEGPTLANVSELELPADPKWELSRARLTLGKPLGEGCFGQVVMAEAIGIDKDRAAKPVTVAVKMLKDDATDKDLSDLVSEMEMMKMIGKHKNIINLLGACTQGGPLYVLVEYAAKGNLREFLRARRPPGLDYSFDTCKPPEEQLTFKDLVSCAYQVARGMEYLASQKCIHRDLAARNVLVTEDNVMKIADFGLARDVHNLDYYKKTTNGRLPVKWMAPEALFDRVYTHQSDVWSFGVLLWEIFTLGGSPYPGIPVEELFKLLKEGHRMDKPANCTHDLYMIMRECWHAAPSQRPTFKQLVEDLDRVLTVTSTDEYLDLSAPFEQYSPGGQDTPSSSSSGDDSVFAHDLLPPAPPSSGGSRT

| Sequence | phosphorylation enrichment |
| --- | --- |
| KQQEIYQEVTQ [CD209_Y239_L242V] | 1.96 |
| YEPDAYYDLDQ [ELP5_Y302_D303Y] | 6.94 |
| CPEASYNRSPI [PTAR1_Y42_R41S] | 0.701 |
| FKTPIYPFLLP [PLD2_Y578_T577I_YF] | 0.782 |
| EEQKKNYNAMK [SCN5A_Y1494_Y1494N] | 0.399 |
| RYVVLYDAELT [ERCC4_Y581] | 1.04 |
| FSLIHYARIVD [MYH7_Y582_G584R] | 0.819 |
| MVSLFYGTALF [OR10C1_Y251] | 0.906 |
| TRDVNYGWIIH [MT-CYB_Y75_R80H] | 0.736 |
| FMMMRYSQNVR [SDAD1_Y656] | 0.782 |
| REEKNDKLKET [BCLAF1_Y459_Y459D] | 0.908 |
| FFPANYVAPMT [GRAP2_Y324_L319F] | 0.646 |
| SDGHEYIYVDR [PDGFRB_Y579_P584R] | 1.43 |
| LLREWYMIFSR [HUWE1_Y4066_I4069F] | 1.14 |
| KHMADYPDCKF [SOX11_Y113_Y116C_YF] | 0.74 |
| FLQEIHNSNNQ [FGG_Y140_Y140H_YF] | 0.716 |
| WASGIYYVPKG [APBB1IP_Y340_R335W] | 7.15 |

| Sequence | phosphorylation enrichment |
| --- | --- |
| NDFGNYNNQSS [HNRNPA1_Y318] | 0.419 |
| FMIISYVLIIR [OR1D2_Y218_V214M] | 0.559 |
| ISKILYHIIKG [CDH17_Y489_S484I] | 0.601 |
| GLIPAYHRVIV [NMNAT1_Y64_M69V] | 0.639 |
| SSGSRYQPLAS [NCAPD2_Y1325_T1321S] | 0.433 |
| DRVALYIAREG [AACS_Y117] | 0.717 |
| FTGSTYRVGDT [FN1_Y106_N104S_YF] | 0.431 |
| EALDFYGEVRT [PTEN_Y155] | 0.872 |
| RDWSHYFKIIE [KRT18_Y129] | 0.997 |
| WQQQSYLDSRI [CTNNB1_Y30_G34R] | 0.496 |
| HSDDDYDDPEL [CLNK_Y69] | 0.756 |
| DFNPNYCFAGK [ALK_Y1096_YF] | 0.887 |
| FKGIVYAVSSD [DCX_Y70] | 0.505 |
| HKANEYFPVVL [ADAMTS18_Y764_YF] | 4.38 |
| QGLRLYRAHLA [BTK_Y617_P619A] | 0.677 |
| MYRVQYNSSVD [LRFN1_Y458_Q455R] | 0.715 |

system: Fer (mouse); test: as above

| Sequence | phosphorylation enrichment |
| --- | --- |
| KQQEIYQEVTQ [CD209_Y239_L242V] | 7.32 |
| YEPDAYYDLDQ [ELP5_Y302_D303Y] | 0.919 |
| CPEASYNRSPI [PTAR1_Y42_R41S] | 0.825 |
| FKTPIYPFLLP [PLD2_Y578_T577I_YF] | 0.497 |
| EEQKKNYNAMK [SCN5A_Y1494_Y1494N] | 0.336 |
| RYVVLYDAELT [ERCC4_Y581] | 0.629 |
| FSLIHYARIVD [MYH7_Y582_G584R] | 0.588 |
| MVSLFYGTALF [OR10C1_Y251] | 1.18 |
| TRDVNYGWIIH [MT-CYB_Y75_R80H] | 4.76 |
| FMMMRYSQNVR [SDAD1_Y656] | 0.58 |
| REEKNDKLKET [BCLAF1_Y459_Y459D] | 0.441 |
| FFPANYVAPMT [GRAP2_Y324_L319F] | 0.41 |
| SDGHEYIYVDR [PDGFRB_Y579_P584R] | 0.514 |
| LLREWYMIFSR [HUWE1_Y4066_I4069F] | 0.943 |
| KHMADYPDCKF [SOX11_Y113_Y116C_YF] | 0.495 |
| FLQEIHNSNNQ [FGG_Y140_Y140H_YF] | 0.607 |
| WASGIYYVPKG [APBB1IP_Y340_R335W] | 5.91 |

| Sequence | phosphorylation enrichment |
| --- | --- |
| NDFGNYNNQSS [HNRNPA1_Y318] | 0.322 |
| FMIISYVLIIR [OR1D2_Y218_V214M] | 0.491 |
| ISKILYHIIKG [CDH17_Y489_S484I] | 0.379 |
| GLIPAYHRVIV [NMNAT1_Y64_M69V] | 0.44 |
| SSGSRYQPLAS [NCAPD2_Y1325_T1321S] | 0.392 |
| DRVALYIAREG [AACS_Y117] | 0.484 |
| FTGSTYRVGDT [FN1_Y106_N104S_YF] | 0.492 |
| EALDFYGEVRT [PTEN_Y155] | 0.707 |
| RDWSHYFKIIE [KRT18_Y129] | 0.412 |
| WQQQSYLDSRI [CTNNB1_Y30_G34R] | 0.455 |
| HSDDDYDDPEL [CLNK_Y69] | 0.399 |
| DFNPNYCFAGK [ALK_Y1096_YF] | 0.742 |
| FKGIVYAVSSD [DCX_Y70] | 0.428 |
| HKANEYFPVVL [ADAMTS18_Y764_YF] | 0.736 |
| QGLRLYRAHLA [BTK_Y617_P619A] | 0.467 |
| MYRVQYNSSVD [LRFN1_Y458_Q455R] | 0.403 |

target: Fes (UniProt P07332); test: as above
Sequence (P07332 whole entry, looked up): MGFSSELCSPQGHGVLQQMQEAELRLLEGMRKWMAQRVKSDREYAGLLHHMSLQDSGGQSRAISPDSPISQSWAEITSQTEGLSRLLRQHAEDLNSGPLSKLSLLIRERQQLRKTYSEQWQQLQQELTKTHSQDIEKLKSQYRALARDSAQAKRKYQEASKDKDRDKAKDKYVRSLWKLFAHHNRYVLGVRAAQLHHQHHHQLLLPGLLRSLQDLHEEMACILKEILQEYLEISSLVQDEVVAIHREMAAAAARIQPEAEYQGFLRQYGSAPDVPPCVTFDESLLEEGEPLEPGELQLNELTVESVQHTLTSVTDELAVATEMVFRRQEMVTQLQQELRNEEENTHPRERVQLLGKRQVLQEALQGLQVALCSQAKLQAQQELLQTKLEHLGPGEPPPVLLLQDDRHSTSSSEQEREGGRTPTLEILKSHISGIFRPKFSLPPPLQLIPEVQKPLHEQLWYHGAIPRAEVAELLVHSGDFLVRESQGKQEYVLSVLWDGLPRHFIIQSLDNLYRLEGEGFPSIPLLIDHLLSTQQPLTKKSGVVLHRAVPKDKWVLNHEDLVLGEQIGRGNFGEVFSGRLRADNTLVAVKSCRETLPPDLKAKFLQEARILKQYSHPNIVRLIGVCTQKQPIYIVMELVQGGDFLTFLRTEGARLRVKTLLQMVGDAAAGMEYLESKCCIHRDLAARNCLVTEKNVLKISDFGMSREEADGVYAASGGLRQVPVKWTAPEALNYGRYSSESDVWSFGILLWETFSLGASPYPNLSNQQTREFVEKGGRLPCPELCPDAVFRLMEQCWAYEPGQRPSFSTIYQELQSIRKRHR

| Sequence | phosphorylation enrichment |
| --- | --- |
| KQQEIYQEVTQ [CD209_Y239_L242V] | 0.942 |
| YEPDAYYDLDQ [ELP5_Y302_D303Y] | 1.56 |
| CPEASYNRSPI [PTAR1_Y42_R41S] | 1.09 |
| FKTPIYPFLLP [PLD2_Y578_T577I_YF] | 0.883 |
| EEQKKNYNAMK [SCN5A_Y1494_Y1494N] | 0.663 |
| RYVVLYDAELT [ERCC4_Y581] | 1.49 |
| FSLIHYARIVD [MYH7_Y582_G584R] | 1.29 |
| MVSLFYGTALF [OR10C1_Y251] | 1.32 |
| TRDVNYGWIIH [MT-CYB_Y75_R80H] | 1.11 |
| FMMMRYSQNVR [SDAD1_Y656] | 1.04 |
| REEKNDKLKET [BCLAF1_Y459_Y459D] | 1.11 |
| FFPANYVAPMT [GRAP2_Y324_L319F] | 0.826 |
| SDGHEYIYVDR [PDGFRB_Y579_P584R] | 0.995 |
| LLREWYMIFSR [HUWE1_Y4066_I4069F] | 2 |
| KHMADYPDCKF [SOX11_Y113_Y116C_YF] | 1.04 |
| FLQEIHNSNNQ [FGG_Y140_Y140H_YF] | 1.01 |
| WASGIYYVPKG [APBB1IP_Y340_R335W] | 1.05 |

| Sequence | phosphorylation enrichment |
| --- | --- |
| NDFGNYNNQSS [HNRNPA1_Y318] | 0.695 |
| FMIISYVLIIR [OR1D2_Y218_V214M] | 0.631 |
| ISKILYHIIKG [CDH17_Y489_S484I] | 0.823 |
| GLIPAYHRVIV [NMNAT1_Y64_M69V] | 0.933 |
| SSGSRYQPLAS [NCAPD2_Y1325_T1321S] | 0.558 |
| DRVALYIAREG [AACS_Y117] | 1.14 |
| FTGSTYRVGDT [FN1_Y106_N104S_YF] | 0.703 |
| EALDFYGEVRT [PTEN_Y155] | 1.39 |
| RDWSHYFKIIE [KRT18_Y129] | 1.72 |
| WQQQSYLDSRI [CTNNB1_Y30_G34R] | 0.793 |
| HSDDDYDDPEL [CLNK_Y69] | 1.74 |
| DFNPNYCFAGK [ALK_Y1096_YF] | 1.28 |
| FKGIVYAVSSD [DCX_Y70] | 0.916 |
| HKANEYFPVVL [ADAMTS18_Y764_YF] | 0.896 |
| QGLRLYRAHLA [BTK_Y617_P619A] | 0.978 |
| MYRVQYNSSVD [LRFN1_Y458_Q455R] | 0.876 |

target: Fyn (UniProt P06241); test: as above
Sequence (P06241 whole entry, looked up): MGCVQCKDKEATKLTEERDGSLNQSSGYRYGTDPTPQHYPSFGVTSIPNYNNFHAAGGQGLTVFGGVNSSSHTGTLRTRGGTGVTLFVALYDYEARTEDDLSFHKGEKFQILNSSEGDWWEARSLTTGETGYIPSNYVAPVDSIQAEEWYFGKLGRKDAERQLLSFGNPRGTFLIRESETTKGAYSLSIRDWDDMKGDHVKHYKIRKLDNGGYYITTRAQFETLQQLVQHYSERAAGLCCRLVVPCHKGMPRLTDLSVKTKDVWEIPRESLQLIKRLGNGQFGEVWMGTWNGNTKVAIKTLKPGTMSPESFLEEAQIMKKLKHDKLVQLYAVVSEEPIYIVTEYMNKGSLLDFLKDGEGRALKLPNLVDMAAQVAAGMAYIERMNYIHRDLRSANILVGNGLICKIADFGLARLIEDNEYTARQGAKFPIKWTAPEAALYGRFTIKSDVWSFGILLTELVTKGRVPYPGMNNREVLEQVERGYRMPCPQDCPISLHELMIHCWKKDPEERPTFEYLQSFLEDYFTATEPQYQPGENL

| Sequence | phosphorylation enrichment |
| --- | --- |
| KQQEIYQEVTQ [CD209_Y239_L242V] | 5.17 |
| YEPDAYYDLDQ [ELP5_Y302_D303Y] | 1.62 |
| CPEASYNRSPI [PTAR1_Y42_R41S] | 0.489 |
| FKTPIYPFLLP [PLD2_Y578_T577I_YF] | 0.456 |
| EEQKKNYNAMK [SCN5A_Y1494_Y1494N] | 0.291 |
| RYVVLYDAELT [ERCC4_Y581] | 0.657 |
| FSLIHYARIVD [MYH7_Y582_G584R] | 0.528 |
| MVSLFYGTALF [OR10C1_Y251] | 2.21 |
| TRDVNYGWIIH [MT-CYB_Y75_R80H] | 0.508 |
| FMMMRYSQNVR [SDAD1_Y656] | 0.424 |
| REEKNDKLKET [BCLAF1_Y459_Y459D] | 0.833 |
| FFPANYVAPMT [GRAP2_Y324_L319F] | 0.471 |
| SDGHEYIYVDR [PDGFRB_Y579_P584R] | 1.11 |
| LLREWYMIFSR [HUWE1_Y4066_I4069F] | 0.755 |
| KHMADYPDCKF [SOX11_Y113_Y116C_YF] | 0.423 |
| FLQEIHNSNNQ [FGG_Y140_Y140H_YF] | 0.511 |
| WASGIYYVPKG [APBB1IP_Y340_R335W] | 10 |

| Sequence | phosphorylation enrichment |
| --- | --- |
| NDFGNYNNQSS [HNRNPA1_Y318] | 0.333 |
| FMIISYVLIIR [OR1D2_Y218_V214M] | 0.426 |
| ISKILYHIIKG [CDH17_Y489_S484I] | 0.449 |
| GLIPAYHRVIV [NMNAT1_Y64_M69V] | 0.458 |
| SSGSRYQPLAS [NCAPD2_Y1325_T1321S] | 0.384 |
| DRVALYIAREG [AACS_Y117] | 0.468 |
| FTGSTYRVGDT [FN1_Y106_N104S_YF] | 0.37 |
| EALDFYGEVRT [PTEN_Y155] | 1 |
| RDWSHYFKIIE [KRT18_Y129] | 0.793 |
| WQQQSYLDSRI [CTNNB1_Y30_G34R] | 0.465 |
| HSDDDYDDPEL [CLNK_Y69] | 0.439 |
| DFNPNYCFAGK [ALK_Y1096_YF] | 0.549 |
| FKGIVYAVSSD [DCX_Y70] | 0.484 |
| HKANEYFPVVL [ADAMTS18_Y764_YF] | 0.807 |
| QGLRLYRAHLA [BTK_Y617_P619A] | 0.576 |
| MYRVQYNSSVD [LRFN1_Y458_Q455R] | 0.435 |
